Assay results reported in the supplement of paper PMC9732359.
± gives the uncertainty stated by the source.

Experiment: protein stability index of a GFP-peptide fusion (yeast GPS) (PSI 1-4); higher = more stable; sorted into four equal gates, so the index is relative within each strain
Conditions: doa10∆
Outline: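 Tiled yeast protein peptides of 17 residues were each joined downstream of GFP, on plasmids that also express Cherry. The pooled library was maintained in yeast, and mid-log cultures in leucine-free medium were sorted into four equal gates on the GFP/Cherry ratio. Plasmids from every gate were amplified by PCR and sequenced on Illumina, with barcodes linking reads to strains. The protein stability index of a peptide is its gate-number-weighted read frequency summed over the gates.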

Sequence | protein stability index
GYILEGEELAFYLRRLT [RPS8A] | 1.26 ± 0.078
GYTQHGGLRPFGVSFIY [PRE9] | 2.67 ± 0.22
HASFLCSFITQDKMFVS [FAS1] | 2.01 ± 0.063
HATVVPPEEFSNTIDEL [SRB7] | 3.19 ± 0.071
HCYPRQLCQITCQILES [RRP46] | 1.8 ± 0.059
HDEKTLAPSKHQPITSE [SIR4] | 2.08 ± 0.088
HDKNIQKLLKQLDSDAN [ISW2] | 2.58 ± 0.049
HDSILHSRILPKKALKV [RRP43] | 2.08 ± 0.038
HDVGELFWKVKEEEGSF [PRE2] | 2.71 ± 0.081
HEFKLIVGKKIQEFLVV [GRR1] | 2.73 ± 0.046
HELGINIDSLKFNELVK [BRR2] | 2.89 ± 0.07
HELPRYGITHGLTNWAA [RPL5] | 2.44 ± 0.045
HFPINVNIVEKDGAKFI [RPL9A] | 2.58 ± 0.069
HGAASFLKERLMEASDA [RPB2] | 1.37 ± 0.15
HGIKDIPIGHVHVIHFQ [AAR2] | 2.89 ± 0.06
HGKRRSQVVETHKVTDI [YMR129W/POM152] | 3.35 ± 0.13
HHAIEEAESLLQFHVAT [RPO21] | 2.67 ± 0.094
HHYRPDMTTEEGLDLLK [PRE1] | 3.32 ± 0.19
HIIQAKADAQREKALNE [RPL19A] | 3.29 ± 0.19
HIRKASSKKSKRLDKVG [LRP1] | 3.21 ± 0.087
HITSVPISAVLRGCKFL [GRR1] | 1.77 ± 0.044
HIVQDCTLTADGAYALS [ASC1] | 2.37 ± 0.057
HKDIPEEDFYTVVGNAS [DSN1] | 2.94 ± 0.091
HKHREARGLTATGKKSR [RPL15A] | 3.58 ± 0.2
HKISFSGTKSEVLTYVN [YJL039C/NUP192] | 2.65 ± 0.093
HKKKRSNAAGADDAISM [SRB8] | 3.06 ± 0.11

Sequence | protein stability index
HKNERRVLEIQTSLVRM [SKI6] | 2.99 ± 0.091
HKSLIRSISWAPSIGRW [YGL100W/SEH1] | 2.81 ± 0.12
HKVQTKLTRELEKKFQD [RPS7A] | 2.43 ± 0.066
HLDNSKSVFSSAGLDSA [RPN1] | 2.58 ± 0.064
HLEEYGYLIQVLLTFLQ [YCS4] | 1.59 ± 0.078
HLILDKLNQKYDIVKFL [GRR1] | 1.83 ± 0.041
HLPCTIEAEEAEEIGVE [RPN8] | 1.8 ± 0.078
HNGSHRTVAGFSNVELP [ARP7] | 3.1 ± 0.071
HNGWVTSLATSAGQPNL [ASC1] | 2.32 ± 0.044
HNSVKRYQIMLPEQLKS [SNM1] | 1.16 ± 0.042
HPFIPLLKEKPNALKPL [RRP6] | 2.54 ± 0.065
HPGYDCWLSNIDIQTQD [RRI1] | 2.72 ± 0.099
HPNRVLEHLHSTAFQNT [COR1] | 2.79 ± 0.041
HPTIYESLPQYVDFVPM [POP4] | 1.72 ± 0.045
HPTTIESLREIPYGPDF [SEC65] | 3.06 ± 0.069
HPVSLISFAIYSALNST [RRP42] | 1.53 ± 0.051
HPYEYEIDHQEYSPEIL [RRP6] | 2.75 ± 0.048
HQQRMSRTAADILLRLC [YCG1] | 2.48 ± 0.29
HRCAIRSGALIKFKKCD [SSN2] | 2.28 ± 0.096
HRLTLEDPVTVEYLTRY [PRE6] | 3.33 ± 0.19
HSDMASKMYNTDKKAFL [PRP8] | 2.91 ± 0.057
HSPFPFNRTKGKMVRAQ [PRP8] | 1.84 ± 0.2
HSRKMNLTRGINLRKVA [RPT6] | 1.26 ± 0.075
HSVQETNKISPKDFSPN [SSN2] | 3.37 ± 0.094
HTKFEVAIGLNGKIWVK [RRP40] | 2.18 ± 0.084
HVKNFGFANSLTFILGQ [YML031W/NDC1] | 1.56 ± 0.12

Sequence | protein stability index
HVKQCQETCDKLRARLV [SMC2] | 2.2 ± 0.18
HVLNKVTLASILTTAVG [RPN1] | 1.72 ± 0.14
HVLSRLSYISALGMMTR [RET1] | 1.35 ± 0.073
HVLYKESKGNAFKHKRA [RPL19A] | 2.97 ± 0.079
HWLQLAKGVYRPNGRKD [POP1] | 2.68 ± 0.06
HYGLAVDIYTHFTSPIR [DIS3] | 1.56 ± 0.042
HYGNEHIRRMVPLAMGI [RPN1] | 1.29 ± 0.082
HYGQTLGKKKNVKEEET [RPS8A] | 2.62 ± 0.035
HYLVLLVAKFLYPIFLL [YJR042W/NUP85] | 1.4 ± 0.035
IAATQDFITGSYLISHK [RPO31] | 3.03 ± 0.083
IACVLTVINEQQREAVR [RPL35A] | 1.73 ± 0.057
IAGFDLIGCIDEAKDFI [PUP3] | 3.17 ± 0.11
IAGINKKKGLDENTSGK [PRP28] | 3.48 ± 0.067
IALILAIQMVDPASFYL [SMC3] | 1.16 ± 0.05
IALMGQDNKKIYVHVRR [ESC2] | 2.33 ± 0.081
IAPPVAPHDSEATLLTN [SNF5] | 2.99 ± 0.066
IAQGIDLVRDIDIDKLI [SRP72] | 1.65 ± 0.14
IASLERELILAKKQNYK [YCG1] | 2.6 ± 0.07
ICDPVHKHREARGLTAT [RPL15A] | 3.49 ± 0.12
ICLMTLIETVFVKNIRM [RPN9] | 1.22 ± 0.064
IDDNYIVVVIEIITSLS [SRB8] | 2.6 ± 0.11
IDEAHRIKNEQSALSQI [ISW2] | 2.6 ± 0.1
IDHINEESWEKVVEFAI [SCL1] | 2.78 ± 0.07
IDKITDGLGNVVDFTSL [YMR129W/POM152] | 3.41 ± 0.11
IDMDKLNTVLIADLDTE [RRP43] | 2.66 ± 0.099
IDNLKDTLKENATEVQK [ITC1] | 2.66 ± 0.05
